This is an account of results in patent US20240108738A1 (Bicycle, published 2024).

First the molecules themselves.
B1: BCY19685 (peptide)
peptide: Ac-CY[Cba]PDYLC[dNle]DEYC-NH2
modifications: linker 1-8-13 via TATA
SMILES: CCCC[C@H]1NC(=O)[C@@H]2CSCCC(=O)N3CN(CN(C3)C(=O)CCSC[C@H](NC(C)=O)C(=O)N[C@@H](Cc3ccc(O)cc3)C(=O)N[C@@H](CC3CCC3)C(=O)N3CCC[C@H]3C(=O)N[C@@H](CC(=O)O)C(=O)N[C@@H](Cc3ccc(O)cc3)C(=O)N[C@@H](CC(C)C)C(=O)N2)C(=O)CCSC[C@@H](C(N)=O)NC(=O)[C@H](Cc2ccc(O)cc2)NC(=O)[C@H](CCC(=O)O)NC(=O)[C@H](CC(=O)O)NC1=O
notes: scaffold TATA
B2: BCY18435 (peptide)
peptide: Ac-CN[Cba]PDYLC[dA]DEYC-NH2
modifications: linker 1-8-13 via TATA
SMILES: CC(=O)N[C@H]1CSCCC(=O)N2CN3CN(C2)C(=O)CCSC[C@H](NC(=O)[C@H](CC(C)C)NC(=O)[C@H](Cc2ccc(O)cc2)NC(=O)[C@H](CC(=O)O)NC(=O)[C@@H]2CCCN2C(=O)[C@H](CC2CCC2)NC(=O)[C@H](CC(N)=O)NC1=O)C(=O)N[C@H](C)C(=O)N[C@@H](CC(=O)O)C(=O)N[C@@H](CCC(=O)O)C(=O)N[C@@H](Cc1ccc(O)cc1)C(=O)N[C@H](C(N)=O)CSCCC3=O
notes: scaffold TATA
B3: BCY18442 (peptide)
peptide: Ac-CY[Cba]PQYLC[dA]DEYC-NH2
modifications: linker 1-8-13 via TATA
SMILES: CC(=O)N[C@H]1CSCCC(=O)N2CN3CN(C2)C(=O)CCSC[C@H](NC(=O)[C@H](CC(C)C)NC(=O)[C@H](Cc2ccc(O)cc2)NC(=O)[C@H](CCC(N)=O)NC(=O)[C@@H]2CCCN2C(=O)[C@H](CC2CCC2)NC(=O)[C@H](Cc2ccc(O)cc2)NC1=O)C(=O)N[C@H](C)C(=O)N[C@@H](CC(=O)O)C(=O)N[C@@H](CCC(=O)O)C(=O)N[C@@H](Cc1ccc(O)cc1)C(=O)N[C@H](C(N)=O)CSCCC3=O
notes: scaffold TATA
B4: BCY18441 (peptide)
peptide: Ac-CY[Cba]PNYLC[dA]DEYC-NH2
modifications: linker 1-8-13 via TATA
SMILES: CC(=O)N[C@H]1CSCCC(=O)N2CN3CN(C2)C(=O)CCSC[C@H](NC(=O)[C@H](CC(C)C)NC(=O)[C@H](Cc2ccc(O)cc2)NC(=O)[C@H](CC(N)=O)NC(=O)[C@@H]2CCCN2C(=O)[C@H](CC2CCC2)NC(=O)[C@H](Cc2ccc(O)cc2)NC1=O)C(=O)N[C@H](C)C(=O)N[C@@H](CC(=O)O)C(=O)N[C@@H](CCC(=O)O)C(=O)N[C@@H](Cc1ccc(O)cc1)C(=O)N[C@H](C(N)=O)CSCCC3=O
notes: scaffold TATA
B5: BCY19689 (peptide)
peptide: Ac-[Pen]Y[Cba]PDYLC[dA]DEYC-NH2
modifications: linker 1-8-13 via TATA
SMILES: CC(=O)N[C@@H]1C(=O)N[C@@H](Cc2ccc(O)cc2)C(=O)N[C@@H](CC2CCC2)C(=O)N2CCC[C@H]2C(=O)N[C@@H](CC(=O)O)C(=O)N[C@@H](Cc2ccc(O)cc2)C(=O)N[C@@H](CC(C)C)C(=O)N[C@H]2CSCCC(=O)N3CN(CN(C3)C(=O)CCSC1(C)C)C(=O)CCSC[C@@H](C(N)=O)NC(=O)[C@H](Cc1ccc(O)cc1)NC(=O)[C@H](CCC(=O)O)NC(=O)[C@H](CC(=O)O)NC(=O)[C@@H](C)NC2=O
notes: scaffold TATA
B6: BCY18437 (peptide)
peptide: Ac-C[4Pal][Cba]PDYLC[dA]DEYC-NH2
modifications: linker 1-8-13 via TATA
SMILES: CC(=O)N[C@H]1CSCCC(=O)N2CN3CN(C2)C(=O)CCSC[C@H](NC(=O)[C@H](CC(C)C)NC(=O)[C@H](Cc2ccc(O)cc2)NC(=O)[C@H](CC(=O)O)NC(=O)[C@@H]2CCCN2C(=O)[C@H](CC2CCC2)NC(=O)[C@H](Cc2ccncc2)NC1=O)C(=O)N[C@H](C)C(=O)N[C@@H](CC(=O)O)C(=O)N[C@@H](CCC(=O)O)C(=O)N[C@@H](Cc1ccc(O)cc1)C(=O)N[C@H](C(N)=O)CSCCC3=O
notes: scaffold TATA
B7: BCY18440 (peptide)
peptide: Ac-CY[Cba][NMeA]DYLC[dA]DEYC-NH2
modifications: linker 1-8-13 via TATA
SMILES: CC(=O)N[C@H]1CSCCC(=O)N2CN3CN(C2)C(=O)CCSC[C@H](NC(=O)[C@H](CC(C)C)NC(=O)[C@H](Cc2ccc(O)cc2)NC(=O)[C@H](CC(=O)O)NC(=O)[C@H](C)N(C)C(=O)[C@H](CC2CCC2)NC(=O)[C@H](Cc2ccc(O)cc2)NC1=O)C(=O)N[C@H](C)C(=O)N[C@@H](CC(=O)O)C(=O)N[C@@H](CCC(=O)O)C(=O)N[C@@H](Cc1ccc(O)cc1)C(=O)N[C@H](C(N)=O)CSCCC3=O
notes: scaffold TATA
B8: BCY18444 (peptide)
peptide: Ac-CY[Cba]PDYLC[dNva]DEYC-NH2
modifications: linker 1-8-13 via TATA
SMILES: CCC[C@H]1NC(=O)[C@@H]2CSCCC(=O)N3CN(CN(C3)C(=O)CCSC[C@H](NC(C)=O)C(=O)N[C@@H](Cc3ccc(O)cc3)C(=O)N[C@@H](CC3CCC3)C(=O)N3CCC[C@H]3C(=O)N[C@@H](CC(=O)O)C(=O)N[C@@H](Cc3ccc(O)cc3)C(=O)N[C@@H](CC(C)C)C(=O)N2)C(=O)CCSC[C@@H](C(N)=O)NC(=O)[C@H](Cc2ccc(O)cc2)NC(=O)[C@H](CCC(=O)O)NC(=O)[C@H](CC(=O)O)NC1=O
notes: scaffold TATA
B9: BCY19684 (peptide)
peptide: Ac-CY[Cba]PDYLC[dK](Pent4ynoyl)DEYC-NH2
modifications: linker 1-8-13 via TATA
SMILES: C#CCCC(=O)NCCCC[C@H]1NC(=O)[C@@H]2CSCCC(=O)N3CN(CN(C3)C(=O)CCSC[C@H](NC(C)=O)C(=O)N[C@@H](Cc3ccc(O)cc3)C(=O)N[C@@H](CC3CCC3)C(=O)N3CCC[C@H]3C(=O)N[C@@H](CC(=O)O)C(=O)N[C@@H](Cc3ccc(O)cc3)C(=O)N[C@@H](CC(C)C)C(=O)N2)C(=O)CCSC[C@@H](C(N)=O)NC(=O)[C@H](Cc2ccc(O)cc2)NC(=O)[C@H](CCC(=O)O)NC(=O)[C@H](CC(=O)O)NC1=O
notes: scaffold TATA
B10: BCY19683 (peptide)
peptide: Ac-CY[Cba]PDYLC[dCha]DEYC-NH2
modifications: linker 1-8-13 via TATA
SMILES: CC(=O)N[C@H]1CSCCC(=O)N2CN3CN(C2)C(=O)CCSC[C@H](NC(=O)[C@H](CC(C)C)NC(=O)[C@H](Cc2ccc(O)cc2)NC(=O)[C@H](CC(=O)O)NC(=O)[C@@H]2CCCN2C(=O)[C@H](CC2CCC2)NC(=O)[C@H](Cc2ccc(O)cc2)NC1=O)C(=O)N[C@H](CC1CCCCC1)C(=O)N[C@@H](CC(=O)O)C(=O)N[C@@H](CCC(=O)O)C(=O)N[C@@H](Cc1ccc(O)cc1)C(=O)N[C@H](C(N)=O)CSCCC3=O
notes: scaffold TATA
B11: BCY19686 (peptide)
peptide: Ac-CY[Cba]PD[Dopa]LC[dA]DEYC-NH2
modifications: linker 1-8-13 via TATA
SMILES: CC(=O)N[C@H]1CSCCC(=O)N2CN3CN(C2)C(=O)CCSC[C@H](NC(=O)[C@H](CC(C)C)NC(=O)[C@H](Cc2ccc(O)c(O)c2)NC(=O)[C@H](CC(=O)O)NC(=O)[C@@H]2CCCN2C(=O)[C@H](CC2CCC2)NC(=O)[C@H](Cc2ccc(O)cc2)NC1=O)C(=O)N[C@H](C)C(=O)N[C@@H](CC(=O)O)C(=O)N[C@@H](CCC(=O)O)C(=O)N[C@@H](Cc1ccc(O)cc1)C(=O)N[C@H](C(N)=O)CSCCC3=O
notes: scaffold TATA

Numbered stars: 1 amine (or outer) side, 2 acyl side, 3 side chain; on linkers, the order of the positions; unused ones are H or OH. Bridge positions count the residues as written; N and C are the ends. Square brackets hold non-standard residues; d marks the D form. Ends that are not written are not given here. * marks the point of attachment. TATA = O=C(CC[*:1])N1CN(C(=O)CC[*:2])CN(C(=O)CC[*:3])C1; Tyr(2-F) = N[C@@H](Cc1ccc(O)cc1F)C(=O)O; Dopa = N[C@@H](Cc1ccc(O)c(O)c1)C(=O)O; 4Pal = N[C@@H](Cc1ccncc1)C(=O)O; dCha = N[C@H](CC1CCCCC1)C(=O)O; Cba = N[C@@H](CC1CCC1)C(=O)O; Pen = CC(C)(S)[C@H](N)C(=O)O; dNle = CCCC[C@@H](N)C(=O)O; dNva = CCC[C@@H](N)C(=O)O; NMeA = CN[C@@H](C)C(=O)O; Pent4ynoyl = C#CCCC(=O)*

This assay deals with T1, Human NKp46 Fc tag (Acro Biosystems, NC1-H5257) (human, UniProt O76036 22-255).
T1 construct: bought; also called Fc-tagged human NKp46
T1 sequence (O76036 22-255 limits assumed): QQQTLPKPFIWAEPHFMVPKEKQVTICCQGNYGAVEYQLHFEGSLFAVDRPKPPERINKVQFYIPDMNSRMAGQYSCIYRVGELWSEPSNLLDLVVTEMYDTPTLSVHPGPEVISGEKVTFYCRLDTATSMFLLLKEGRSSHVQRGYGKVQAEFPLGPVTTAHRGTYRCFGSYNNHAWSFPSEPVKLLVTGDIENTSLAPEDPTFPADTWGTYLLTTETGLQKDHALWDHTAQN
The assay is described as follows: SPR Method 1 and/or 2. On the procedure:
The SPR analysis was run at 25° C. and a flow rate of 50 μl/min with 60 seconds association and 200-400 seconds dissociation time. Data were corrected for DMSO excluded volume effects. All data were double-referenced for blank injections and reference surface using standard processing procedures and data processing and kinetic fitting were performed using Scrubber software, version 2.0c (BioLogic Software). Data were fitted using simple 1:1 binding model allowing for mass transport effects where appropriate.
For analysis of peptide binding, a Biacore 8k+ instrument was used with a CM5 chip (Cytiva). All experiments were carried out at 25° C. Anti-human IgG (Fc) antibody (Cytiva) was immobilized on all flow cells by standard amine coupling chemistry. The running buffer was HBS-N(Cytiva, 10 mM HEPES, 0.15 M NaCl, pH 7.4) and the flow rate was 10 μL/min. The carboxymethyl dextran surface was activated with a 1:1 ratio of 0.4 M 1-ethyl-3-(3-dimethylaminopropyl) carbodiimide hydrochloride (EDC)/0.1 M N-hydroxy succinimide (NHS) (Cytiva) for 420s. […] Residual activated groups were blocked with a 420 s injection of 1 M ethanolamine (pH 8.5). The final surface density was 3000-5000 RU. Fc-tagged human NKp46 was diluted to 0.1 μM in HBS-N and was captured on flow cell 2 only of the sensor chip at a flow rate of 10 μL/min to 500-1000 RU. The buffer was then changed to PBS-P+(Cytiva) supplemented with 2% DMSO. […] The flow rate was 50 μL/min with 60 s association and 400 s dissociation. Data were corrected for DMSO volume exclusion effects. All data were double-referenced against blank injections and reference surface response using standard processing procedures. Data processing and kinetic fitting was performed using Biacore Insight Evaluation Software with Extended Screening and Characterization Extension (Cytiva). Data were fitted using steady state affinity 1:1 binding model to determine KD. Data were fitted using kinetic 1:1 binding model to determine kinetic constants where appropriate.
As to ACYLPDYLCGDEYCA-NH2 (linker 2-9-14 via TATA; also: scaffold: TATA, TATB or TBMT, scaffold TATA) [BCY18470], the Kd (usually the concentration at which binding is half-saturated) turned out to be 22 nM.

Turning to B1, the Kd was found to be 10 nM.

In the case of B2, the Kd was 91 nM.

For the molecule Ac-CY[Cba]PDYLC[dF]DEYC-NH2 (linker 1-8-13 via TATA, scaffold TATA) [BCY19682], the Kd is 9 nM.

Molecule Ac-CY[Cba]PDYLC[dV]DEYC-NH2 (linker 1-8-13 via TATA, scaffold TATA) [BCY18443] returned a Kd of 6.3 nM.

The molecule B3 displayed a Kd of 7.1 nM.

B4 had a Kd of 7.7 nM.

Molecule B5 showed a Kd of 16 nM.

Ac-CY[Cba]PDYL[Pen][dA]DEYC-NH2 (linker 1-8-13 via TATA, scaffold TATA) [BCY19690] yielded a Kd of 19 nM.

With B6, binding was put at a Kd of 47 nM.

In turn, B7 had a Kd of 149 nM.

Ac-[dC]Y[Cba]PDYLC[dA]DEYC-NH2 (linker 1-8-13 via TATA, scaffold TATA) [BCY19693]: the Kd came out at 17 nM.

Molecule B8 returned a Kd of 3.9 nM.

In the case of Ac-CY[Cba]PD[Tyr(2-F)]LC[dA]DEYC-NH2 (linker 1-8-13 via TATA, scaffold TATA) [BCY19687], the Kd turned out to be 28 nM.

With B9, the Kd amounted to 9.4 nM.

The molecule B10 showed a Kd of 10 nM.

B11 displayed a Kd of 44 nM.
